For orientation: Kd means the equilibrium constant for the complex coming apart. As a reminder, the koff is a measure of how fast the partners let go of each other. One may read the kon as a measure of how fast the partners come together.

Experiment [1] concerns the target SARS-CoV-2 spike protein on stably transduced 293T cells (SARS-CoV-2). Briefly: FACS binding curve, percent of cells labeled. (In general: In flow cytometry, cells or beads pass a laser one at a time.)
Experiment [2] has as its target SARS-CoV-2 receptor binding domain (RBD), recombinant, biotinylated (SARS-CoV-2).

B1: Ab2-7 IgG (antibody, V domains shown)
VH: QVTLKESGPTRVKPTQTLTLTCTFSGFSLSTTGVGVGWIRQPPGKALEWLALIYWNDDKRYSPSLKSRLTITKDTSKNQVVLTMTNMDPVDTATYYCARISGSGYFYPFDIWGQGTTVTVSS
VL: NFMLTQPHSVSESPGKTVTISCTRSSGSIASNYVQWYQQRPGSSPTTVIYEDNQRPSGVPDRFSGSIDSSSNSASLTISGLKAEDEADYYCQSYDSSSLWVFGGGTKLTVL
In the case of B1, in experiment [1], the fold shift of the FACS binding curve to the right, IgG against scFv-Fc came out at 10 fold. Further, in experiment [2], the Kd is 0.268 nM, the off-rate constant (koff) worked out at 3.93e-05 s⁻¹ and the kon is 147000 M⁻¹ s⁻¹.

Values taken from US20240409617A1.
